Measurements from patent US8987192B2, “Potent and selective mediators of cholesterol efflux” (The Regents of the University of California, priority 2006, dated 2015).
Entries after “also recorded” stand apart in the source; their conditions may differ. Where a SMILES comes first, the peptide text is derived from it. Where no end group is shown, it is not given here.

Columns and labels:
[1] = Pharmacokinetics of iodinated peptide in Sprague-Dawley rats; type: in vivo; conditions: for Half-live: IP, time interval 0-30 hours
Experimental: An iodinated version of polypeptide of SEQ ID NO:4, which was modified to have a Y residue at the C-terminus, was administered intravenously to Sprague-Dawley rats. The kinetics reflected a biphasic elimination, which is typical of peptides. […] This distribution pattern resembles what has been reported for ApoA-I and HDL. […] (See, FIG. 23).
The bioavailability in percent was calculated from the area under the curve IP as divided by area under the curve IV after adjustment for residual activity and the bioavailability was about 40%.

[2] = tested on: Apolipoprotein E knock-out mice; test: Atherosclerosis in Apolipoprotein E knock-out mice on Western diet, pooled series (Example 19); type: in vivo, mouse; conditions: 30 mg/kg IP, 21 injections, pooled data of three series
Experimental: The polypeptide of SEQ ID NO:4 and its Y26 analog have been evaluated with respect to ability to inhibit atherosclerosis in Apolipoprotein E knock-out mice. The mice were given Western diet for 18 weeks and then randomized to receive saline, free polypeptide or polypeptide-phospholipid complex. […] The degree of atherosclerosis was then determined in whole aorta and aortic root/sinus. Three experimental series were performed. […] The results are equal to or better than previously have been obtained with IV infusions of 40 mg/kg Apolipoprotein A-I Milano/phospholipids complex into Apo E knock-out mice (Shah et al., Circ., 97:780-5, 1998).
As noted above, data from three experimental series were pooled. Pooling of data is justified as only minor changes in the procedures were made (21 injections at 30 mg/kg over 42 and 21 days, respectively), and the diet regimens and sources of mice and polypeptide, respectively, were the same. In the first experiment S26 was substituted for Y26.

[3] = target: ABCA1 (Mus musculus, UniProt P41233); test: Cholesterol efflux from [3H]cholesterol-labeled ABCA1-expressing J774 mouse macrophages; type: cell-based; design: to upregulate cellular ABCA1 protein; endogenous in cells; host or cells: J774 mouse macrophages; conditions: macrophages with vs without cAMP; listed as S26>Y
Experimental: In some embodiments, a polypeptide known to mediate cholesterol efflux (e.g., helix 9/10 of Apo A-I) is used to screen for additional mediators of cholesterol efflux in a cell based assay. For example, cell lines in which cholesterol efflux can be enhanced using a cAMP analog that up-regulates ABCA1 protein expression (e.g., J774 macrophages) can conveniently be used to assess the ability of a polypeptide of the present invention to mediate cholesterol efflux. The cells are incubated with labeled cholesterol (e.g., [^3H]cholesterol) under conditions appropriate for cholesterol uptake by the cells. Thus, cAMP or cAMP analogs (e.g., CPT-cAMP) are incubated with the cells for a suitable time before the initiation of cellular cholesterol efflux, i.e., prior to contacting the cells with a test polypeptide. Measurement of labeled cholesterol appearing in the medium is used to determine the cholesterol efflux mediating activity of the test polypeptide.
J774 mouse macrophages labeled with [^3H]cholesterol were treated (20 h) with 22-hydroxycholesterol (10 μM)/cis-retinoic acid (10 μM) to upregulate cellular ABCA1 protein.
Mouse macrophages were labeled with [^3H]cholesterol and treated with a cAMP analog to induce ABCA1 expression. […] Km values were calculated using the Michaelis-Menton equation and GraphPad Prism4 software.
Inverted sequence peptides synthesized with all L-amino acids and all D-amino acids were tested for cholesterol efflux activity using ABCA1 expressing J774 macrophages.
Two peptide analogs were engineered; the first replacing glutamic acid residues (E) at position 8 and 15 with aspartic acid residues (D), i.e., E8, 15>D polypeptides, and the second, replacing E1, 7, 8, 15, 18, 19 with D, i.e., all D (Asp) polypeptide. Cholesterol efflux activity was determined using J774 macrophages treated with and without a cAMP analog to modulate ABCA1 expression.
The impact of the A12>L substitution was also tested for activity, which also expanded non-polar surface area.
1-palmitoyl-2-oleoyl-phosphatidylcholine (POPC) was used to evaluate the cholesterol efflux properties of a formulated polypeptide of the present invention. […] To test cholesterol efflux activity, J774 mouse macrophages were labeled with [^3H]cholesterol and treated with and without cAMP to modulate ABCA1 expression.

[4] = Pharmacokinetic analysis with monophasic decay model; type: in vivo
From the text: Position 11, i.e., A, in the polypeptide of SEQ ID NO:4 can be substituted with other non-polar (hydrophobic) amino acids as well as other polar non-charged amino acids.

ABCA1, sequence (P41233 whole entry): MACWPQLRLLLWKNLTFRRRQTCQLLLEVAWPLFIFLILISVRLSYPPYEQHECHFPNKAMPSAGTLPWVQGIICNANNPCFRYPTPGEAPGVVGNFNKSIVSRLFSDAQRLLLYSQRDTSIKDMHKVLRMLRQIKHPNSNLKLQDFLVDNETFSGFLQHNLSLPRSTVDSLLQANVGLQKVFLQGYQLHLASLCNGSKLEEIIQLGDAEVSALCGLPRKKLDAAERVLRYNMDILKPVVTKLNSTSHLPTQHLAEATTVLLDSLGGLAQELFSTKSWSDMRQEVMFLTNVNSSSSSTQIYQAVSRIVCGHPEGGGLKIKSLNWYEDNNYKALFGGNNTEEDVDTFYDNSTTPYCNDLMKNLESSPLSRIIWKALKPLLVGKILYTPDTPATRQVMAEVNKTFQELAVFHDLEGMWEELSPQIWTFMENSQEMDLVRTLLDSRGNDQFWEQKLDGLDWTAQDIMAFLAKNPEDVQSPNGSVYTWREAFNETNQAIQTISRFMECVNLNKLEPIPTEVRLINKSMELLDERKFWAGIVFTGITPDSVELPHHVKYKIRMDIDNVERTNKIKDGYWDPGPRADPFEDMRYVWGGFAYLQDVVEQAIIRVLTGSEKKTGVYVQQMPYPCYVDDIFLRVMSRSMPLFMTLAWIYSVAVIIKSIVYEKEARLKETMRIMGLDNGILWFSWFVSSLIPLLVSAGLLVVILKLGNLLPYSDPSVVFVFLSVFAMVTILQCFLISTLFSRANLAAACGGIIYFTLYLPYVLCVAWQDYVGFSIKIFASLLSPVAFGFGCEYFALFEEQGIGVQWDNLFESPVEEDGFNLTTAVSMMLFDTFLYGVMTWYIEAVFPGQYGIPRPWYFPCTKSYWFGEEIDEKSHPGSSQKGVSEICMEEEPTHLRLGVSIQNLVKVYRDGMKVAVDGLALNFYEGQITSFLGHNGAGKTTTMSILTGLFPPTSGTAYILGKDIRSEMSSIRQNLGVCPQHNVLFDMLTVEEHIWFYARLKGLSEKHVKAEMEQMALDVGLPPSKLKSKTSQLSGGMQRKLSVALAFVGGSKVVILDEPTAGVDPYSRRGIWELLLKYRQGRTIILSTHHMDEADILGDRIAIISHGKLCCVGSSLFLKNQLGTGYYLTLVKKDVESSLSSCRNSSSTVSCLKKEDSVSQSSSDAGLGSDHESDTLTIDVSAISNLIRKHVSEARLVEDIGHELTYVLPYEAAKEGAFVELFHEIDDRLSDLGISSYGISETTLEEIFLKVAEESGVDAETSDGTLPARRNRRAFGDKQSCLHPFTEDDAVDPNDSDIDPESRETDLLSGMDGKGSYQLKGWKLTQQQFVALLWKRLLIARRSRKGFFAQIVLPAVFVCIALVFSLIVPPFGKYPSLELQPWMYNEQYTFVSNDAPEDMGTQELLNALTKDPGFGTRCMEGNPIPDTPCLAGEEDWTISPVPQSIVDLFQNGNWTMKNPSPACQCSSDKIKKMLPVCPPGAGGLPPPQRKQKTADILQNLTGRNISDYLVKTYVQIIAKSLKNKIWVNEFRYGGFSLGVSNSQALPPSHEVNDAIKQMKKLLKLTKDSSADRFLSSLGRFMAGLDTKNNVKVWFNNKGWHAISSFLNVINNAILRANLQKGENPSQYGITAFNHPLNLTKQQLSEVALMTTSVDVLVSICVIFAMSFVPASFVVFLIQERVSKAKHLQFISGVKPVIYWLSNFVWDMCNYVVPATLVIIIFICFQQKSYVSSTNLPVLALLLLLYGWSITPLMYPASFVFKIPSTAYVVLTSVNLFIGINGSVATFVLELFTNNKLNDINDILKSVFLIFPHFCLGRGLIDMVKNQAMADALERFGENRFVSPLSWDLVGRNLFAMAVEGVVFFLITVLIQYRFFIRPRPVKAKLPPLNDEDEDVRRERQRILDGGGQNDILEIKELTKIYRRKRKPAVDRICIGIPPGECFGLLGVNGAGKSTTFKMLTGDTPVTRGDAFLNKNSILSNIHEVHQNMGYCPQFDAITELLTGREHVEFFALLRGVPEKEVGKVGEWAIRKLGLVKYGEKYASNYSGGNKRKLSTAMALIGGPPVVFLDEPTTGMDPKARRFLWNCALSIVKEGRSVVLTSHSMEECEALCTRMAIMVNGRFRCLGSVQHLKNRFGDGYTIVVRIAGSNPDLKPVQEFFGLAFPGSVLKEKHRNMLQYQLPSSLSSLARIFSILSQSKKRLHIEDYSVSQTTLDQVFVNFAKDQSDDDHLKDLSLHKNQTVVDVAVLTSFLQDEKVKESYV

Molecule | Half-live ([1]; listed as SEQ ID NO: 4/Y26 peptide) [h] | Half-live ([1]; modified to include a tyrosine at the C-terminus) | Half-live ([1]; which was modified to have a Y residue at the C-terminus) | distribution volume relative to plasma volume ([1]; IV) | Correlation ([1]; IV, 0-2.5 hours) | Half-live, first phase ([1]; IV, 0-2.5 hours) [h] | Clearance ([1]; IV, 2.5-24 hours) [mL/kg/h] | Half-live, terminal (second phase) ([1]; IV, 2.5-24 hours) [h] | Volume of distribution ([1]; IV, 2.5-24 hours) [mL/kg] | Half-live, terminal (second phase) ([1]; IV, 2.5-24 hours, modified to include a tyrosine at the C-terminus) | Half-live, terminal (second phase) ([1]; IV, 2.5-24 hours, which was modified to have a Y residue at the C-terminus) | antiatherosclerotic effect (whole aorta and aortic root/sinus) [2] | ABCA1-dependent cholesterol efflux [3] | pharmacokinetic properties compared to parent polypeptide [4]
SEQ ID NO: 4/Y26: SEQ ID NO:4 with serine 26 replaced by tyrosine; iodinated version used for pharmacokinetics (EVRSKLEEWFAAFREFAEEFLARLKY; also: iodinated version used for pharmacokinetics) | 11.2 | about 11 hours | about 11.2 hours | approximately twice as large as the plasma volume | −0.95 | 4.5 | 1.2 | 33.7 | 55.7 | about 34 hours | approximately 34 hours | significant antiatherosclerotic effects | stimulated ABCA1 cholesterol efflux like the parent 26-mer polypeptide; also recorded: retained ABCA1-dependent cholesterol efflux activity | –
CC(C)C[C@H](NC(=O)[C@H](Cc1ccccc1)NC(=O)[C@H](CCC(=O)O)NC(=O)[C@H](CCC(=O)O)NC(=O)[C@H](C)NC(=O)[C@H](Cc1ccccc1)NC(=O)[C@H](CCC(=O)O)NC(=O)[C@H](CCCNC(=N)N)NC(=O)[C@H](Cc1ccccc1)NC(=O)[C@H](C)NC(=O)[C@H](Cc1ccc(O)cc1)NC(=O)[C@H](Cc1ccccc1)NC(=O)[C@H](Cc1c[nH]c2ccccc12)NC(=O)[C@H](CCC(=O)O)NC(=O)[C@H](CCC(=O)O)NC(=O)[C@H](CC(C)C)NC(=O)[C@H](CCCCN)NC(=O)[C@H](CO)NC(=O)[C@H](CCCNC(=N)N)NC(=O)[C@@H](NC(=O)[C@@H](N)CCC(=O)O)C(C)C)C(=O)N[C@@H](C)C(=O)N[C@@H](CCCNC(=N)N)C(=O)N[C@@H](CC(C)C)C(=O)N[C@@H](CCCCN)C(=O)N[C@@H](CO)C(=O)O [A11>Y11] (H-EVRSKLEEWFYAFREFAEEFLARLKS-OH) | – | – | – | – | – | – | – | – | – | – | – | – | – | identical pharmacokinetic properties
